Source: patent US7816094B2, “Method for quantitative analysis of interactions between HIF-1alpha C-terminal peptides and CBP or p300 proteins and method of screening inhibitors using the same” (Korea Institute of Science and Technology, priority 2006, dated 2010)
Ends that are not written are not given here. * marks the point of attachment. FITC = O=C1OC2(c3ccc(O)cc3Oc3cc(O)ccc32)c2ccc(NC(=S)*)cc21; Ahx = NCCCCCC(=O)O

What was measured:
[1] = molecular target: T1, GST-p300 (truncated p300, amino acids 1-221) (Homo sapiens, UniProt Q09472); assay: Fluorescence polarization (FP)-based binding assay of fluorescein-labeled HIF-1α peptides with GST-p300; conditions: increasing GST-p300 concentrations; FIG. 2B, 3B, 4C, 5B, 5D
T1 construct: made in house; host or cells: E. coli BL21
T1 sequence (Q09472 300-520): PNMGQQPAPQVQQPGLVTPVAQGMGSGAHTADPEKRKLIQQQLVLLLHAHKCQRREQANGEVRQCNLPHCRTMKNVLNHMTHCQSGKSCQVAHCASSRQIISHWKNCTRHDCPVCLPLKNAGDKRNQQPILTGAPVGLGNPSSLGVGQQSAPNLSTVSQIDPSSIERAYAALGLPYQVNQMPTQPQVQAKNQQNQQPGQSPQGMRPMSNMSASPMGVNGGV
Procedure: (§1) The binding affinity and features between the HIF-1α peptides and CBP or p300 proteins were analyzed by measuring the fluorescence polarization (FP) values that were changed by the formation of a protein-ligand complex through the interaction between the CBP or p300 proteins and the synthesized peptides that were manufactured by the method as described in above Example 1. The FP values were measured with a fluorescence spectrometer (Perkin-Elmer), which was set to have a slit width of 5 nm and a total integration time of 5 seconds. EBC Buffer (50 mM Tris and 120 mM NaCl; pH 8.0, 0.25% Nonidet P (NP)-40) was used for the binding reaction.
(§2) Because the cysteine-/histidine-rich 1(CH1) domain of CBP or p300 proteins that binds the C-terminal transactivation domain (C-TAD) of HIF-1α contains the Zn^2+-coordinating centers, an embodiment of the present invention first tested for the importance of Zn^2+ added in the preparation of CBP or p300 proteins by cell lysis and protein elution on their binding to the HIF-1α-derived peptides, wherein the GST-CBP or GST-p300 proteins containing the CH1 domain were prepared by cell lysis and protein elution in the presence or absence of ZnSO4. 800 nM of CBP or p300 proteins in the EBC Buffer prepared from above Example 1 were mixed with 100 nM of F-HIF-1α(776-826, SEQ ID NO: 3) and F-HIF-1α(786-826, SEQ ID NO: 4) peptides at 25° C., respectively. Then, the FP (fluorescence polarization) values were measured.
To compare interactions between the four peptides derived from different regions in HIF-1α C-TAD with CBP or p300, these fluorescein-labeled HIF-1α peptides were mixed with CBP proteins at varying concentrations from 0 to 3000 nM under the conditions of above Example 2-2, and then the FP (fluorescence polarization) values were measured (FIG. 2A).
The dissociation constants of these two peptides were determined to be 157.3 nM for HIF-1α(776-826, SEQ ID NO: 3) and 180.1 nM for HIF-1α(786-826, SEQ ID NO: 4), respectively.

[2] = molecular target: T2, GST-CBP (truncated human CBP, amino acids 1-450) (Homo sapiens, UniProt Q92793); assay: Fluorescence polarization (FP)-based binding assay of fluorescein-labeled HIF-1α peptides with GST-CBP; conditions: GST-CBP 0 to 3000 nM; FIG. 2A
T2 construct: made in house; host or cells: E. coli BL21
T2 sequence (Q92793 1-450): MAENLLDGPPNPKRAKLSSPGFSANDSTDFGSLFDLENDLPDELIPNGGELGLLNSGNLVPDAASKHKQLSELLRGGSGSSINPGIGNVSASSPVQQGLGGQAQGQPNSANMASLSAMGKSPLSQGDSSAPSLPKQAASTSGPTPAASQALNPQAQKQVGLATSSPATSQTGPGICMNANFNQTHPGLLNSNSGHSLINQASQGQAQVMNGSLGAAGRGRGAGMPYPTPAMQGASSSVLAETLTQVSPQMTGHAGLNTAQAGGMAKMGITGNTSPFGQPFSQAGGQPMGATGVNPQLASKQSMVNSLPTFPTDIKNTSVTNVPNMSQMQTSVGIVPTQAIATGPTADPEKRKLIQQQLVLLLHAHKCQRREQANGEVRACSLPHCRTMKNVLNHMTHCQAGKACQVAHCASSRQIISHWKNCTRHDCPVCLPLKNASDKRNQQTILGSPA
Procedure: as §1
as §2, with “800 nM of CBP or p300 proteins in the EBC Buffer prepared from above Example 1 were mixed with 100 nM of F-HIF-1α(776-826, SEQ ID NO: 3) and F-HIF-1α(786-826, SEQ ID NO: 4) peptides at 25° C., respectively.” left out, “measured. […]” for “measured.”

[3] = molecular target: T3, GST-p300 / F-HIF-1α-(786-826, SEQ ID NO: 4) interaction (Homo sapiens, UniProt Q09472); assay: Competitive inhibition analysis of the FP-based binding assay (F-HIF-1α-p300 interaction); conditions: compared with wild-type peptide; FIG. 6
T3 construct: made in house; host or cells: E. coli BL21 for GST-p300; the tracer peptide was synthesized by Anygen
T3 sequence (Q09472 300-520): as the sequence (Q09472 300-520) above
Procedure: To compare the importance of Thr-796, Cys-800, and Asn-803 residues in the HIF-1α peptide on its p300 binding activity, an embodiment of the present invention performed competitive inhibition analyses of the FP-based binding assays using single mutant peptides. The mutant peptides were prepared with the method as described below.
Namely, human HIF-1α-(786-826, SEQ ID NO: 4) and its single mutation products prepared by PCR were subcloned into pGEX-2T-1 (Amersham Biosciences), and overexpressed in E. coli BL21 (DE3). After the GST fusion proteins were purified using glutathione-SEPHAROSE (Amersham Biosciences), followed by GST removal with thrombin treatment, the resulting peptides were purified using reverse-phase HPLC and confirmed by MALDI-TOF mass spectrometry. The results of competitive inhibition for HIF-1α-(786-826, SEQ ID NO: 4) peptides with point mutations on the HIF-1α-p300 interaction are depicted in FIG. 6.

FITC-ACA-DESGLPQLTSYDCEVNAPIQGSRNLLQGEELLRAL ({FITC-Ahx}-DESGLPQLTSYDCEVNAPIQGSRNLLQGEELLRAL) [HIF-1α(788-822, SEQ ID NO: 6), fluorescein (FITC)-labeled HIF-1α C-terminal peptide, residues 788-822, aminocaproic acid linker]
FP values (change) upon mixing with GST-p300 [1]: increased much less than those of the above two peptides | FP values (change) upon mixing with GST-CBP [2]: increased much less than those of the above two peptides

FITC-ACA-SDLACRLLGQSMDESGLPQLTSYDCEVNAPIQGSRNLLQ ({FITC-Ahx}-SDLACRLLGQSMDESGLPQLTSYDCEVNAPIQGSRNLLQ; cysteine pairing not given here) [HIF-1α(776-814, SEQ ID NO: 5), fluorescein (FITC)-labeled HIF-1α C-terminal peptide, residues 776-814, aminocaproic acid linker]
FP values (change) upon mixing with GST-p300 [1]: no increase upon incubation with GST-p300 | FP values (change) upon mixing with GST-CBP [2]: no increase up to 3000 nM of GST-CBP

N803A: unlabeled HIF-1α (786-826) peptide with single mutation N803A (SMDESGLPQLTSYDCEVAAPIQGSRNLLQGEELLRALDQVN; Amino acid sequence for HIF-1a(786-826))
competitive inhibition of F-HIF-1α-(786-826, SEQ ID NO: 4) binding to p300 [3]: to a little lesser degrees than the wild-type

S-nitrosylated F-HIF-1α (786-826, SEQ ID NO: 4): F-HIF-1α (786-826, SEQ ID NO: 4) treated with SNAP, S-nitrosylated on Cys-800, purified by reverse-phase HPLC
FP values (change) upon mixing with GST-p300 [1]: only minimal increase in FP with increasing p300 concentrations

T796D: unlabeled HIF-1α (786-826) peptide with single mutation T796D (SMDESGLPQLDSYDCEVNAPIQGSRNLLQGEELLRALDQVN; Amino acid sequence for HIF-1a(786-826))
competitive inhibition of F-HIF-1α-(786-826, SEQ ID NO: 4) binding to p300 [3]: to a little lesser degrees than the wild-type

hydroxylated peptide: F-HIF-1α (786-826, SEQ ID NO: 4) hydroxylated on asparagine by recombinant His-FIH-1, purified by reverse-phase HPLC
FP values (change) upon mixing with GST-p300 [1]: only slightly increased with increasing p300 concentrations

peptide treated with N or H kinase fractions: F-HIF-1α (786-826, SEQ ID NO: 4) phosphorylated by normoxic or hypoxic HeLa kinase fractions, purified by reverse-phase HPLC
FP values (change) upon mixing with GST-p300 [1]: FP increase upon incubation with GST-p300, similar to the untreated peptide
